Assay: yeast display, Sf9 membrane polyspecificity reagent, FACS + sequencing; frameworks hold sequencing errors
Procedure, shortened: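 A nanobody's polyreactivity label depends on the gate it was sorted from. Yeast display cells were stained with 10% biotinylated, detergent-solubilized Sf9 membrane reagent for 1 hour at 4 °C, enriched on streptavidin microbeads and sorted by FACS. The low and high (top ~1%) gates were set on anti-HA fluorescence for expression and streptavidin fluorescence for reagent binding.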

Row | Sequence | polyreactivity (PSR sort gate)
1 | QVQLVESGGGLVQAGCSLRLSCAASGFTFGSNEMGWYRPAPGKLRELVAAINYSGVRTYYADSVKGRFTISRDKAMNNVYLQMKSLKPEETAVDFCAKTRSKPISFDYWGQGTQVTVSS | high polyreactivity
2 | QVQLVESGGGLVQAGCSLRLSCAASGFTFQVYTMGSYRPAPGKERELVARISRRGGSTYYADSVKGRFTISRDNAKNTVYLQMNSLKPEDTAVYYCAADWYASSYRTYTFDYWGQGTQVTVSS | high polyreactivity
3 | QVQLVESGGGLVQAGCSLRLSCAASGFTFYPYAMGWYRQAPGKERELVAAITRGGSTYYADSVKGRFTISRDNEKNTVYLQMNSLTPEDTAVYYCNAYWQGYGYDYWGQGTQVTVSS | low polyreactivity
4 | QVQLVESGGGLVQAGCSLRLSCAASGFTFYQNVMGWYRQAPGKERELVASINRRGGSTYYADSVKGRFTISRDNAMNTVYLQKNSLKPEDTAVYYCAARTYRFYTRQLDYWGQGTQVTVSS | high polyreactivity
5 | QVQLVESGGGLVQAGCSLRLSCAASGFTFYYNAMGWYRQAPGKERDLVAAISISGASTYYADSVKGRFTISRDNAKNTVYLQMNSLKPEDTAVFYCAKRTKGYTYHHEYGYWGQGTQVTVSS | low polyreactivity
6 | QVQLVESGGGLVQAGCSLRLSCAASGITFVPYAIGWYRQAPGKDRELVAAITGGGSTNYADSVKGRFTISRDNAKNTVYLQMNSLNQEDTAVYYCAKHAYGYYYSRSDYWGQGTQVTVSS | low polyreactivity
7 | QVQLVESGGGLVQAGCSLRLSCAASGRIFASNPMGWYRQAPGKERELVAGISRNGGSTFYADSVKGRFTISRDNAKNTVDVQMHSLKPEDTEVYYCARYFTHSGGYRDRIYYYWGQGTQVTVSS | low polyreactivity
8 | QVQLVESGGGLVQAGCSLRLSCAASGRIFDGNAMGWYRQAPGKERELVAAISWTGGSTYYADSVKGRFTISRDNAKNTVYLQMNSLKPEDTAVYYCAADSGWWLEQWSWYDYWGQGTQVTVSS | low polyreactivity
9 | QVQLVESGGGLVQAGCSLRLSCAASGRIFHLYAMGWYTQAPGKERELVAAITGRGGSTYYADSVKGRFTISRDNAKNTVYLQINCLKPEDTAVYYCASYEFGFLRYYSGRSYYYWGQGTQVTVSS | high polyreactivity
10 | QVQLVESGGGLVQAGCSLRLSCAASGRIFWMNTMGRYRQAPGKERELVAAISFRSDDTYYADSVKGRFTISRDIAKNTVYLQMKSLKPEDTAVYYCNKAWFPYYFYRFDYWGQGTQVTVSS | high polyreactivity
11 | QVQLVESGGGLVQAGCSLRLSCAASGRILFGYAMGWYRQAPGKERELVAAITGSGDSTYYADSVKGRFTISRDNAKNAVYLQLYSLKPEDTAVYYCATEEVYGQGNYWGHGTQVTVSS | low polyreactivity
12 | QVQLVESGGGLVQAGCSLRLSCAASGRTFGTYTKGWYRQAPGKERELVAAIYTRDGSTYYADSVKGRFSISRDNAKNTVYLQMNSLKPDDTAFYYCNAVVRYYDWGYWDYDYWGQGTQVTVSS | low polyreactivity
13 | QVQLVESGGGLVQAGCSLRLSCAASGRTFNGYAMGWYRQAPGKERELVAAIASEGDTNYADSVKGRFTISRDNAKNTVYLQMNSLKPEDTAVYYCNADITRIWHFKYDYWGQGTQVTVSS | high polyreactivity
14 | QVQLVESGGGLVQAGCSLRLSCAASGRTFNYYAMGWYRQAPGKERELVAAISVSGVRTYYADSVKGRFTISRDNAKNSVYLQMNSLKPEDTAVYYCAGLYQSVRGYVYWGQGTQVTVSS | high polyreactivity
15 | QVQLVESGGGLVQAGCSLRLSCAASGRTLFKYAMGWYRQAPGKERELVAVISWGGGITYYADSVKGRFTISRDNAKNTVYLKMNSLKPEDTAVYYCATDSHARFYRYYWGQGTQVTVSS | low polyreactivity
16 | QVQLVESGGGLVQAGCSLRLSCAASGSFFSSNSMGWYRQAPGTERELVAAISRSGGNTYYADSVKGRFTISRDNAKNTVYLQMNSLKPEDTAVYYCAVVGRHGQKYDWGQGNQVTVSS | high polyreactivity
17 | QVQLVESGGGLVQAGCSLRLSCAASGSIFARYAMGWSRQAPGKERELVAAINSTVSTNYADSVKGRFTISRDNAKNTVYLQMNSLKTEDTAVYYCAVDIVRGGRDSWGQGTQVTVSS | low polyreactivity
18 | QVQLVESGGGLVQAGCSLRLSCAASGSIFDSKAMGWYRQAPGKERELVAAISSSGARTYYADSVKGRFTISRDNAKNTVYLQMNSLKPEDTAVYYCAAKPGYKSKMDYWGQGTQVTVSS | high polyreactivity
19 | QVQLVESGGGLVQAGCSLRLSCAASGSIFGWYAMGWYRPAPGKERELVAAITLIGGSTYYADSVKGRFTISRDNAKNTVYLQMNSLKPEDTAVYYCNAVWYWGDMDYWGQGTQVTVSS | low polyreactivity
20 | QVQLVESGGGLVQAGCSLRLSCAASGSILWHYAMGWYRPAPGKERELVAAISGSGRTNYADSVKGGFTISRDNAKNTVYLQLNSLKPEDTAVYYGARVHGTSESKYYYWGQGTQVTVSL | low polyreactivity
21 | QVQLVESGGGLVQAGCSLRLSCAASGSTFYYYAMGWYRQAPGKERELVAAISNRDGRTYYADSVKGRFTISRDTAKNTVYFQMNSLKPEDSAVYYCNAYSYGHYYWGHGTQVTVSS | high polyreactivity
22 | QVQLVESGGGLVQAGCSLRLSCAASGSTYIRNAMGWYRQAPGKERELVAAISTSGSRTYYADSVKGRFTISRDNAKNTVYLQMNSLKPEDTAVYYCAKVPAGSRIEYDYCGQGTQVTVSS | high polyreactivity

Row | Sequence | polyreactivity (PSR sort gate)
23 | QVQLVESGGGLVQAGCSLRLSCAASGTIFWYYAMGWYRQAPGKERELVAAISSGGSTYYADSVKGRFTISRDNAKNTVYLQMNSLKPEDTAVYYCNVRLRKKIQNSKYDYWGQGTQVTVSS | high polyreactivity
24 | QVQLVESGGGLVQAGCSLRLTCAASGRTFITNAKGWYRQAPVKERELVAAISSGTGGRTNYADSVKGRFTISRDNAKNTVYLQMNSRKPEDTAVYYCAARSTKYYPYGYWGQGTQVTLSS | high polyreactivity
25 | QVQLVESGGGLVQAGCSLRVSSAASGRIFVYYAMGRYRQAPGKERELVAAIRWTGGSTYYADSVKGRFTISRDNAKNTVYLQMNSVKPEDTAVYYCATVNRYCHFNYWGQGTQVTVSS | high polyreactivity
26 | QVQLVESGGGLVQAGFSLRLSCAASGSIFFIYDKGWYRQAPGKERELVADITSGGGSTFYADSVKGRFTISRDNAKNTVYLQMNSLKPEDTAVYYCATDDHDQPGGQLYISEVNYWGQGTQVTVSS | low polyreactivity
27 | QVQLVESGGGLVQAGGCLRLSCAASGFTFPFYAMGWYRQAPGKERELVAAITSRGGSTYYADSVKGRFTISRDNAKNTVYLQMNSLKPEHTAVYYCAARYTPRRYYYWGQGTQVTVSS | high polyreactivity
28 | QVQLVESGGGLVQAGGGLRLSCAASGRIFSPYAMGWDRQSPGKEMELVAAIRRSGVDTYYADSVKGRFTISRDNAKNTVYLQINSLKPEDTAVYYCAADPYWFFPHYDSWGQGTQVTVSS | low polyreactivity
29 | QVQLVESGGGLVQAGGGLRLSCAASGSTFVKNAMGWYRQAPGKERELVAAISYRGGRTYYADSVKGRFTISRDNAKNTVYLQMNSLKPEDTAVYYCAADASHLTGSEYWGQGTQVTVSS | high polyreactivity
30 | QVQLVESGGGLVQAGGILLLSCAASGGTFENYAMGWYIQAPGKERELVAAISSGGSTNYADSVKGRFTISRDNAKNTVYLQMNRLKPEDTAVYYCARYRVWGSNGHKLFHYDYWGQGTQVTVSS | low polyreactivity
31 | QVQLVESGGGLVQAGGILLLSCAASGSIFKPYAMGWYTQAPGKERELVAAISKRGGSTSYADSVKGRFTISRDNAKNSVYLQMNSLKPEDTAVYYCAAVAAFSGLSWYDYWGLGTQVTVSS | high polyreactivity
32 | QVQLVESGGGLVQAGGILRISCAASGFIFDLYAMGWYRQAPGKERELVAAISGSGGSTYYADSVKGRFTISRDNAKNTVYLQMNSLKPEDTAVYYCAARRFGTNYDYWGQGTQVTVSS | high polyreactivity
33 | QVQLVESGGGLVQAGGILRLSCAASGFIFEYYAMGWYRQAPGKERELVAAINGGGGNTYYADSVKGRFTISRDNAKNTVYLQMNSLKPEDTAVYYCNAKRRKYRYDYWGQGTQVTVSS | high polyreactivity
34 | QVQLVESGGGLVQAGGILRLSCAASGFIFSSNAMGWYRQAPGKERELVAAITSSGGGTYYADSVKGRFTISRDNAKNTVYLQMNSLKPEDTAVYYCNAAYKYAIPSYGYWGQGTQVTVSS | low polyreactivity
35 | QVQLVESGGGLVQAGGILRLSCAASGFIFWYNAMGWYRQAPGKERELVARINIGGTTSYADSVKGRFTISRDNAKNNVYLQMNSLKREDTAVYYCNAVQGRQYDYWGQGTQVNVSS | low polyreactivity
36 | QVQLVESGGGLVQAGGILRLSCAASGFTFSSNAMGWYRPAPGKERELVAAISKGGGSTYYADSVKGRFTISRDNAKNSVYLQMNSLKPEDTAVYYCATRRRGGLTFDSWGQGTQVTVSS | high polyreactivity
37 | QVQLVESGGGLVQAGGILRLSCAASGFTFVGNAMGWYRKAAGKERELVATITSGGNTKYADSVKGRFTISRDNAKNTVYLQMNSLTPEDTAVYYCAAAKYNYRRFKYWGQGTQVTVSS | low polyreactivity
38 | QVQLVESGGGLVQAGGILRLSCAASGIIFGYYAMGWYRQAPGKERELVAAISSIGGSTYYADSVKGRFTISRDNAKNTVYLQMNSLKPEDTAVYYCAAKYYGRYYRYLGSSFDYWGQGTQVTVSS | high polyreactivity
39 | QVQLVESGGGLVQAGGILRLSCAASGIIFQRNEMGWYRQTPGKERELVANIRDGGITYADSVKGRFTISRDNAKNTVYLEMNSLKPEDTAVYYCARDDTSPGYCDQSSNAAYYYWGQGTQVTVSS | low polyreactivity
40 | QVQLVESGGGLVQAGGILRLSCAASGIIFSEYAMGWYRQAPGKERELVAAISKSSGSTRYADSVKGRFTISRDNAKNTVYLQMNSLKPEDTAVYYCAREYRWRYGYDYWGQGTQVTVSS | high polyreactivity
41 | QVQLVESGGGLVQAGGILRLSCAASGITFGGYAMAWYRQAPGKERELVAAISRGGGSTNYADSVKGRFTISRDNAKNTVYLQINSLKPEDTAVYYCNARRQNSRYDYWGQGTQVTVSS | low polyreactivity
42 | QVQLVESGGGLVQAGGILRLSCAASGLIFNYYAMGWYRQAPGKERELVADITRGGSTNYADSVKGRFTISRDNANFTVYVQMNSMKPEDSAVYYCAARVRGWWYRYDYWGHGTQVTVSS | high polyreactivity
43 | QVQLVESGGGLVQAGGILRLSCAASGLTFAKNAMGWYRQAPGKERELVAAITTGGSTYYADSVKGRFTISRDNAKNTVYLQMNSLKPEDTAVYYCAAQILVRHIPYYFWGQGSQVTVSS | high polyreactivity

From the nanobody polyreactivity screen of Harvey et al. (2022)
